# According to patent US20210102933:
# How the values were obtained:
# [1] = system: T1, FRET peptide substrate EDANS-A-L-E-V-L-F-Q/G-P-K-DABCYL
# T1 sequence: ALEVLFXPK
Substance,"fluorescent signal upon cleavage of the FRET peptide substrate in microwells (18 hours, 100 µg/mL peptide) [1]","fluorescent signal in trypsin cleavage assay in microwells (0.5 µg/ml trypsin, 10 µg/ml FTC-casein, 1 and 18 hours) (FTC-casein)","fluorescent signal in trypsin cleavage assay in microwells (0.05, 0.5 and 5 µg/ml trypsin, 10 µg/ml FTC-casein, 1 hour) (FTC-casein)"
human rhinovirus 3C protease,"The secreted enzyme successfully cleaved the substrate, resulting in a fluorescent signal",–,–
trypsin,–,the intensity of the observed fluorescent signal was dependent on the time of incubation,the intensity of the observed fluorescent signal was dependent on the concentration of trypsin in the microwells
